Measured values taken from PMC9986708.

Columns and labels:
[1] = target: apolipoprotein E ɛ2 (apoE ɛ2) (human (endogenous in plasma)) (UniProt P02649); assay: non-reducing SDS-PAGE with western blot
[2] = target: apolipoprotein E ɛ3 (apoE ɛ3) (human (endogenous in plasma)) (UniProt P02649); assay: non-reducing SDS-PAGE with western blot

stoichiometry N [1] | stoichiometry N [2] | Substance
2 |  | apolipoprotein E ɛ2 (apoE ɛ2) (from UniProt P02649 19-317) (natural protein)
 | 2 | apolipoprotein E ɛ3 (apoE ɛ3) (from UniProt P02649 19-317) (natural protein)
